Experimental data published in article PMC6327041, “Histone H3 binding to the PHD1 domain of histone demethylase KDM5A enables active site remodeling” (Nature Communications, 2019).
Where no end group is shown, it is not given here. 5‑FAM = 5-carboxyfluorescein; Me3 = trimethyl-lysine

Experiments:
Conditions in all cases: both partners purified
[1] = molecular target: T1, KDM5A_(1-797) (human, UniProt P29375 1-797); assay: HDX-MS; KDM5A_(1-797) with 50 µM FeSO4 and 100 µM N-OG, with 100 µM H3 10mer effector peptide against apo; 40 mM HEPES, 50 mM KCl, pH 7.9, 4 °C
T1 construct: histone demethylase KDM5A, human, residues 1-797; Cloned into pFASTBAC HTA; the His tag was removed with TEV protease; also called WT KDM5A_(1-797); KMD5A; source: Sf21 (baculovirus), purified (cobalt resin, TEV cleavage, S200 SEC); not shown: His tag, N-terminal, cleaved
T1 sequence (looked up): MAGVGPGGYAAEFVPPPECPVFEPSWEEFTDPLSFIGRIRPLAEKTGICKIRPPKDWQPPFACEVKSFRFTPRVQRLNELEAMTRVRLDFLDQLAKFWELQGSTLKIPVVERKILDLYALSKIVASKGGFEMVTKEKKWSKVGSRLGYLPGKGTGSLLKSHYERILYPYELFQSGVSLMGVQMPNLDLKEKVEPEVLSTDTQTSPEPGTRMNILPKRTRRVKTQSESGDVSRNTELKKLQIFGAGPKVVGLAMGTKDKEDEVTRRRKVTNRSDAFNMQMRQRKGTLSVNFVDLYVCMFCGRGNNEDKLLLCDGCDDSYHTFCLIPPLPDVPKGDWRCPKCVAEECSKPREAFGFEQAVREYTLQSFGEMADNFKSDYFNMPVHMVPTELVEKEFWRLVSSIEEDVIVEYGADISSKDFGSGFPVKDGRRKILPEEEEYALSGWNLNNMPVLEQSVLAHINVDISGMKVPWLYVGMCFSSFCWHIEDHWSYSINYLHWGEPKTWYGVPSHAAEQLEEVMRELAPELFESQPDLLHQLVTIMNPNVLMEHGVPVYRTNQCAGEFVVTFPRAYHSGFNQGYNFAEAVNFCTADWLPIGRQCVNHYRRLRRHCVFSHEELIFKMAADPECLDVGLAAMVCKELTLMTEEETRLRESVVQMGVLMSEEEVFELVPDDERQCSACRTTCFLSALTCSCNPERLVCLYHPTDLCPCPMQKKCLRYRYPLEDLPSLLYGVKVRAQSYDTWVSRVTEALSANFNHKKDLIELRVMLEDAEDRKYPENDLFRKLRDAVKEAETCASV

[2] = molecular target: T2, GST-PHD1 (V291-K347) of KDM5A (human, UniProt P29375 291-347); assay: fluorescence polarisation; direct FP: 10 nM C-terminal fluorescently labeled H3 peptide with varying concentrations of GST-PHD1
T2 construct: PHD1 domain of histone demethylase KDM5A, human, residues V291-K347; Cloned into pET41a; the vector may add further tags (surmise); also called V291-K347 PHD1; PHD1_(KDM5A); source: E. coli BL21(DE3), purified (Glutathione Sepharose 4B, Superdex 75 SEC); not shown: GST, N-terminal, kept
T2 sequence (looked up): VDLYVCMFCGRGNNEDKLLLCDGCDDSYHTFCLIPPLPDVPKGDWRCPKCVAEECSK

[3] = molecular target: T3, GST-PHD1 (S287-K347) of KDM5A (human, UniProt P29375 287-347); assay: as above
T3 construct: PHD1 domain of histone demethylase KDM5A, human, residues S287-K347; Cloned into pET41a; the vector may add further tags (surmise); also called S287-K347 PHD1; GST-PHD1 (Ser287-Lys347); source: E. coli BL21(DE3), purified (Glutathione Sepharose 4B, Superdex 75 SEC); not shown: GST, N-terminal, kept
T3 sequence (looked up): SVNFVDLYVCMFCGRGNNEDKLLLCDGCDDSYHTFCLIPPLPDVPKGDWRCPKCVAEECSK

[4] = molecular target: T4, GST-PHD1 (S287-K347) D292A of KDM5A (human, UniProt P29375 287-347, D292A); assay: as above
T4 construct: PHD1 domain of histone demethylase KDM5A, human, residues S287-K347 with D292A; Cloned into pET41a; the vector may add further tags (surmise); also called S287-K347 PHD1 D292A; PHD1 D292A; source: E. coli BL21(DE3), purified (Glutathione Sepharose 4B, Superdex 75 SEC); not shown: GST, N-terminal, kept
T4 sequence (looked up): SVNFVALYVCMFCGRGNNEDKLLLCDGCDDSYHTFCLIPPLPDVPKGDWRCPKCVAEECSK

[5] = molecular target: T2, GST-PHD1 (V291-K347) of KDM5A; assay: fluorescence polarisation; competition-based FP: 2 µM GST-PHD1 with 10 nM C-terminal fluorescently labeled H3 peptide and different concentrations of unlabeled competitor peptide
[6] = molecular target: T3, GST-PHD1 (S287-K347) of KDM5A; assay: as above
[7] = molecular target: T4, GST-PHD1 (S287-K347) D292A of KDM5A; assay: as above

| Binder | binding result [1] | Kd [2] | Kd [3] | Kd [4] | Kd [5] | Kd [6] | Kd [7] |
| --- | --- | --- | --- | --- | --- | --- | --- |
| ARTKQTARKS (peptide, UniProt P68431 2-11, looked up, histone H3 N-terminal tail, 10mer Ala1-Ser10, unmodified, unlabelled; also called H3 10mer peptide; PHD1-specific H3 10mer peptide) [unmodified H3 10mer effector peptide (H3 Ala1-Ser10)] | binds | – | – | – | – | – | – |
| ARTKQTARKS-{5‑FAM} (peptide, UniProt P68431 2-11, looked up, histone H3 N-terminal tail, 10mer Ala1-Ser10, unmodified; also called H3K4me0; C-terminal fluorescently labeled H3 peptide) [5-carboxyfluorescein (5-FAM) conjugated H3 10mer peptide] | – | 1.89 ± 0.16 µM | 0.68 ± 0.04 µM | 5.2 ± 0.26 µM | – | – | – |
| ARTAQTARKS (peptide, UniProt P68431 2-11, looked up, histone H3 N-terminal tail, 10mer Ala1-Ser10 with K4A) [H3K4A 10mer peptide] | – | – | – | – | 2.11 ± 0.27 µM | 1.58 ± 0.19 µM | 22.2 ± 5.7 µM |
| ARTK(Me3)QTARKS (peptide, UniProt P68431 2-11, looked up, histone H3 N-terminal tail, 10mer Ala1-Ser10; also called tri-methylated H3K4 peptide) [H3K4me3 10mer peptide] | – | – | – | – | 35.5 ± 7.5 µM | 34 ± 5.5 µM | 511 ± 281 µM |
